{
  "source": "patent US20190032056",
  "about": "“STEM-LOOP COMPOSITIONS AND METHODS FOR INHIBITING FACTOR D” (Vitrisa Therapeutics, Inc., published 2019)",
  "binders": {"B1": {"name": "Aptamer 76 (ssRNA)", "RNA": "CCGACUUGCCAGUAUUGGCGAUGGCUGGAAGUUUGUCGG", "modifications": "2'-F G except 2'-OMe G in stem 1; 2'-OMe A,C,U; 5' C6NH2; 3' idT"}, "B2": {"name": "P06 (PEGylated Aptamer 76) (ssRNA)", "RNA": "B1 RNA", "modifications": "as Aptamer 76; 5' 40 kDa branched PEG via C6NH2; 3' idT"}, "B3": {"name": "Aptamer 102 (ssRNA)", "RNA": "CGACUUGCCAGUAUUGGCGAUGGCUGGAAGUUUGUCG", "modifications": "2'-F G except 2'-OMe G in stem 1; 2'-OMe A,C,U; 5' C6NH2; 3' idT"}, "B4": {"name": "P07 (PEGylated Aptamer 102) (ssRNA)", "RNA": "B3 RNA", "modifications": "as Aptamer 102; 5' 40 kDa branched PEG via C6NH2; 3' idT"}, "B5": {"name": "Aptamer 53 (ssRNA)", "RNA": "B3 RNA", "modifications": "2'-F G; 2'-OMe A,C,U; 5' C6NH2; 3' idT"}, "B6": {"name": "Aptamer 74 (ssRNA)", "RNA": "CCGCCUUGCCAGUAUUGGCUUAGGCUGGAAGUUUGGCGG", "modifications": "2'-F G except 2'-OMe G at 3,35,36,38,39; 2'-OMe A,C,U; 5' C6NH2; 3' idT"}, "B7": {"name": "P08 (PEGylated Aptamer 106) (ssRNA)", "RNA": "B6 RNA with C4A, G36U", "modifications": "as Aptamer 106; 5' 40 kDa branched PEG via C6NH2; 3' idT"}, "B8": {"name": "Aptamer 106 (ssRNA)", "RNA": "B6 RNA with C4A, G36U", "modifications": "2'-F G except 2'-OMe G in stem 1; 2'-OMe A,C,U; 5' C6NH2; 3' idT"}, "B9": {"name": "Aptamer 15 (ssRNA)", "RNA": "B6 RNA", "modifications": "2'-F G; 2'-OMe A,C,U; 5' C6NH2; 3' idT"}, "B10": {"name": "P01 (PEGylated Aptamer 15) (ssRNA)", "RNA": "B6 RNA", "modifications": "2'-F G; 2'-OMe A,C,U; 5' 40 kDa branched PEG via C6NH2; 3' idT"}},
  "key": {"complement Factor D (fD) [1]": {"target": "T1, complement Factor D (fD) (Homo sapiens, UniProt P00746 SEQ:1-228)", "T1 sequence (P00746 26-253)": "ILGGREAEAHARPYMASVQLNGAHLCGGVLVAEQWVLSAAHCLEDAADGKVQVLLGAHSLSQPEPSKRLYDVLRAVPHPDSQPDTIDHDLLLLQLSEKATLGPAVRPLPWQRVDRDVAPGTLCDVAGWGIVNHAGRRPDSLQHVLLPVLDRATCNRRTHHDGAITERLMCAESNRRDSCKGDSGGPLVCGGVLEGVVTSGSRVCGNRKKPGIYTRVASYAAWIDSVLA", "assay": "TR-FRET, 25 C", "settings": "tags: His-tagged recombinant, bead-immobilized via His capture beads (flow) or anti-His Eu (TR-FRET); hairpin", "description": "(§1) The binding affinity of aptamers for fD was determined in solution using a homogenous time-resolved fluorescence resonance energy transfer (TR-FRET) assay (Table 21). In brief, 2.5 nM recombinant human Factor D with a hexahistidine tag (SEQ ID NO:324) (His), 2.5 nM anti-His Europium, and varied concentrations of Dylight® 650-labeled aptamer was added to half-well black 96-well plates in TR-FRET buffer (50 mM MOPS, pH 7.4, 125 mM NaCl, 5 mM KCl, 0.1 mg/mL BSA, 50 μM CHAPS, 1 mM CaCl₂ and 1 mM MgCl₂). After 1 hour incubation at 25° C., binding activity was assessed using a BioTek® Cytation™ 5 plate reader. Affinity binding constants were calculated as the concentration at which 50% of aptamer is bound using a single site binding model, with values ranging from 0.66 nM to 2.5 nM (Table 21)."}, "[2]": {"target": "T2, complement Factor D (fD) in C1q-depleted human serum (Homo sapiens, UniProt P00746 SEQ:1-228)", "T2 sequence (P00746 26-253)": "as above", "assay": "inhibition; hemolysis, sd 0.8", "settings": "protein: extract; tags: endogenous fD, about 9.6 nM in 10% serum; hairpin", "description": "(§2) In V-bottom 96-well plates the following reagents were added to a final volume of 250 μL: appropriate volume of 1× Veronal buffer with 0.1% gelatin, 100 μL aptamer, 30 μL of C1q-depleted human serum and 20 μl RBCs. This mixture was incubated for 25 minutes at room temperature, then the reaction was stopped by the addition of 5 μL of 500 mM EDTA. The plate was centrifuged for 5 minutes at 500×g at room temperature, then 100 μL of supernatant was removed and the extent of RBC lysis was determined by measuring absorbance at 405 nm.\n(§3) The potency of the PEG-aptamers P01, P04, P06, P07 and P08 compared to their non-pegylated counterparts was determined in the alternative complement-dependent hemolysis assay as described in Example 2."}, "complement Factor D (fD) [3]": {"target": "T1, complement Factor D (fD)", "assay": "SPR", "settings": "tags: amine-coupled to dextran chip for SPR; free in esterase assay; hairpin", "description": "(§4) The binding affinity of aptamers for fD was determined by surface plasmon resonance (SPR) on a Reichert4 SPR System, where either aptamer or fD was immobilized as ligand on a solid surface and the interactant analyte was flowed in solution over the immobilized ligand (Table 20)."}, "[4]": {"target": "T2, complement Factor D (fD) in …", "assay": "inhibition; hemolysis, sd 0.9", "settings": "protein: extract; tags: endogenous fD, about 9.6 nM in 10% serum; hairpin", "description": "as §2, §3"}, "[5]": {"target": "T2, complement Factor D (fD) in …", "assay": "inhibition; hemolysis, sd 0.1", "settings": "protein: extract; tags: endogenous fD, about 9.6 nM in 10% serum; hairpin", "description": "as §2, §3"}, "[6]": {"target": "T2, complement Factor D (fD) in …", "assay": "inhibition; hemolysis, sd 0.6", "settings": "protein: extract; tags: endogenous fD, about 9.6 nM in 10% serum; hairpin", "description": "as §2, §3"}, "[7]": {"target": "T2, complement Factor D (fD) in …", "assay": "inhibition; hemolysis; Table 17 lists about 10 nM", "settings": "protein: extract; tags: endogenous fD, about 9.6 nM in 10% serum; hairpin", "description": "as §2"}, "complement Factor D (fD) [8]": {"target": "T1, complement Factor D (fD)", "assay": "flow; bead-based direct binding", "settings": "tags: His-tagged recombinant, bead-immobilized via His capture beads (flow) or anti-His Eu (TR-FRET); hairpin"}, "[9]": {"target": "T2, complement Factor D (fD) in …", "assay": "inhibition; hemolysis, sd 1.4", "settings": "protein: extract; tags: endogenous fD, about 9.6 nM in 10% serum; hairpin", "description": "as §2, §3"}, "complement Factor D (fD) [10]": {"target": "T1, complement Factor D (fD)", "assay": "SPR; fD immobilized", "settings": "tags: amine-coupled to dextran chip for SPR; free in esterase assay; hairpin", "description": "as §4"}, "complement Factor D (fD) [11]": {"target": "T1, complement Factor D (fD)", "assay": "TR-FRET, 50 mM MOPS pH 7.4, 125 mM NaCl, 1 mM Ca and Mg, 25 C", "settings": "tags: His-tagged recombinant, bead-immobilized via His capture beads (flow) or anti-His Eu (TR-FRET); hairpin", "description": "as §1"}, "[12]": {"target": "T2, complement Factor D (fD) in …", "assay": "inhibition; hemolysis, sd 0.5", "settings": "protein: extract; tags: endogenous fD, about 9.6 nM in 10% serum; hairpin", "description": "as §2, §3"}, "[13]": {"target": "T2, complement Factor D (fD) in …", "assay": "inhibition; hemolysis, sd 0.4", "settings": "protein: extract; tags: endogenous fD, about 9.6 nM in 10% serum; hairpin", "description": "as §2, §3"}, "[14]": {"target": "T2, complement Factor D (fD) in …", "assay": "inhibition; hemolysis, sd 4.4", "settings": "protein: extract; tags: endogenous fD, about 9.6 nM in 10% serum; hairpin", "description": "as §2, §3"}, "complement Factor D (fD) [15]": {"target": "T1, complement Factor D (fD)", "assay": "flow; bead-based direct binding, 37 C", "settings": "tags: His-tagged recombinant, bead-immobilized via His capture beads (flow) or anti-His Eu (TR-FRET); hairpin"}, "[16]": {"target": "T2, complement Factor D (fD) in …", "assay": "inhibition; hemolysis, sd 1.5", "settings": "protein: extract; tags: endogenous fD, about 9.6 nM in 10% serum; hairpin", "description": "as §2, §3"}},
  "note": "Changes are numbered by the printed parent chain.",
  "data": [
    {"binder": "B1", "values": [
      {"measurement": "Kd", "setting": "complement Factor D (fD) [1]", "result": 0.8, "unit": "nM"},
      {"measurement": "IC50", "setting": "[2]", "result": 4.2, "unit": "nM"},
      {"measurement": "Kd", "setting": "complement Factor D (fD) [3]", "result": 1.6, "unit": "nM"}
    ]},
    {"binder": "B2", "values": [
      {"measurement": "IC50", "setting": "[4]", "result": 4.1, "unit": "nM"}
    ]},
    {"binder": "B3", "values": [
      {"measurement": "Kd", "setting": "complement Factor D (fD) [1]", "result": 1.6, "unit": "nM"},
      {"measurement": "IC50", "setting": "[5]", "result": 6.3, "unit": "nM"},
      {"measurement": "Kd", "setting": "complement Factor D (fD) [3]", "result": 2.5, "unit": "nM"}
    ]},
    {"binder": "B4", "values": [
      {"measurement": "IC50", "setting": "[6]", "result": 4.4, "unit": "nM"}
    ]},
    {"binder": "B5", "values": [
      {"measurement": "IC50", "setting": "[7]", "result": "< 10", "unit": "nM"}
    ]},
    {"binder": "B6", "values": [
      {"measurement": "Kd", "setting": "complement Factor D (fD) [8]", "result": 2.7, "unit": "nM"},
      {"measurement": "IC50", "setting": "[9]", "result": 7, "unit": "nM"},
      {"measurement": "Kd", "setting": "complement Factor D (fD) [10]", "result": 3.7, "unit": "nM"},
      {"measurement": "Kd", "setting": "complement Factor D (fD) [11]", "result": 2.5, "unit": "nM"}
    ]},
    {"binder": "B7", "values": [
      {"measurement": "IC50", "setting": "[12]", "result": 4.1, "unit": "nM"}
    ]},
    {"binder": "B8", "values": [
      {"measurement": "Kd", "setting": "complement Factor D (fD) [1]", "result": 0.66, "unit": "nM"},
      {"measurement": "IC50", "setting": "[13]", "result": 5.2, "unit": "nM"},
      {"measurement": "Kd", "setting": "complement Factor D (fD) [3]", "result": 1.7, "unit": "nM"}
    ]},
    {"binder": "B9", "values": [
      {"measurement": "IC50", "setting": "[14]", "result": 9.4, "unit": "nM"},
      {"measurement": "Kd", "setting": "complement Factor D (fD) [15]", "result": 8.37, "unit": "nM"}
    ]},
    {"binder": "B10", "values": [
      {"measurement": "IC50", "setting": "[16]", "result": 6.1, "unit": "nM"}
    ]}
  ]
}
